# Source: the supplement of paper PMC11908140
# B1: library; numbered along this chain (parent)
# chain: MRKPRAAVGSGHRKQAASQEGRQKHAKNNSQAKPSACDGLARQPEEVVLQASVSSYHLFRDVAEVTAFRGSLLSWYDQEKRDLPWRRRAEDEMDLDRRAYAVWVSEVMLQQTQVATVINYYTGWMQKWPTLQDLASASLEEVNQLWAGLGYYSRGRRLQEGARKVVEELGGHMPRTAETLQQLLPGVGRYTAGAIASIAFGQATGVVDGNVARVLCRVRAIGADPSSTLVSQQLWGLAQQLVDPARPGDFNQAAMELGATVCTPQRPLCSQCPVESLCRARQRVEQEQLLASGSLSGSPDVEECAPNTGQCHLCLPPSEPWDQTLGVVNFPRKASRKPPREESSATCVLEQPGALGAQILLVQRPNSGLLAGLWEFPSVTWEPSEQLQRKALLQELQRWAGPLPATHLRHLGEVVHTFSHIKLTYQVYGLALEGQTPVTTVPPGARWLTQEEFHTAAVSTAMKKVFRVYQGQQPGTCMGSKRSQVSSPCSRKKPRMGQQVLDNFFRSHISTDAHSLNSAAQ
# Variants of: B1
# Assay: 8OG:A repair function score (normalized; synonymous = 0, nonsense = -1) (normalized log-likelihood score); higher = more repair activity (WT-like)
# Details: with 8OG:A DNA repair reporter (GFP) in HEK-293 MUTYH KO cells
# Method in brief: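 Per-tile Rosace fitness scores were converted to a normalized repair function score anchored on synonymous and nonsense distributions. That scale puts synonymous medians at 0 and nonsense medians at -1. Variants with starting counts under 300 counts per million were discarded. Input came from sorting viable mCherry+ MUTYH knockout HEK-293 cells, carrying lentiviral MUTYH cDNA NNN codon-scan libraries in 10 pg/ml doxycycline and an 8OG:A GFP repair reporter, into GFP+ and GFP− bins at 72 h, three replicates per tile, followed by tile amplicon sequencing.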
# 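Also: cells sorted at 72 h after reporter transfection.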
row,Variant,8OG:A repair function score
1,D208T,-1.03
2,D208M,-0.974
3,D208F,-1.04
4,D208H,-1.01
5,D208E,-0.991
6,D208W,-1.02
7,D208L,-1.03
8,D208V,-0.996
9,D208Q,-1.01
10,D208S,-0.987
11,D208P,-1.04
12,D208N,-0.984
13,D208R,-1.03
14,D208A,-1.04
15,D208I,-1.02
16,D208K,-0.994
17,D208Y,-1.01
18,D208C,-1.02
19,D208G,-1
20,V211S,-0.531
21,V211F,-0.4
22,V211C,-0.265
23,V211Q,-0.837
24,V211D,-0.988

row,Variant,8OG:A repair function score
1,V211P,-1.02
2,V211M,-0.251
3,V211I,-0.0557
4,V211L,-0.586
5,V211R,-1.02
6,V211E,-0.951
7,V211G,-0.791
8,V211H,-0.617
9,V211N,-0.806
10,V211T,-0.428
11,V211A,-0.477
12,V211K,-1
13,A203S,-0.0724
14,A203N,-0.000873
15,A203K,0.0825
16,A203D,-0.191
17,A203W,-0.183
18,A203L,-0.0917
19,A203E,-0.0816
20,A203G,-0.165
21,A203T,0.03
22,A203Y,-0.245
23,A203H,0.0237
24,A203V,0.0414

row,Variant,8OG:A repair function score
1,A203Q,0.0356
2,A203P,0.109
3,A203M,-0.0505
4,A203F,-0.255
5,A203R,0.00374
6,A203I,0.0319
7,N210I,-1
8,N210Y,-1
9,N210G,-0.962
10,N210Q,-0.95
11,N210P,-0.658
12,N210W,-1.01
13,N210D,-1.03
14,N210R,-1.03
15,N210F,-1
16,N210V,-0.927
17,N210E,-0.997
18,N210L,-0.937
19,N210M,-0.923
20,N210T,-1.03
21,N210K,-1.04
22,N210A,-0.876
23,N210S,-1.03
24,N210H,-0.833

row,Variant,8OG:A repair function score
1,N210C,-0.854
2,G205T,-0.773
3,G205F,-0.891
4,G205Y,-0.873
5,G205R,-0.953
6,G205W,-0.894
7,G205P,0.0348
8,G205C,-0.378
9,G205S,-0.352
10,G205A,-0.145
11,G205M,-0.711
12,G205D,-0.933
13,G205V,-0.876
14,G205E,-0.592
15,G205L,-1.03
16,G205H,-0.8
17,G205N,-0.947
18,G205Q,-0.764
19,G205K,-0.961
20,G205I,-0.994
21,V206I,-0.0438
22,V206P,-0.905
23,V206E,-1.01
24,V206G,-0.835

row,Variant,8OG:A repair function score
1,V206T,-0.338
2,V206F,-0.894
3,V206R,-1.01
4,V206L,-0.338
5,V206H,-1.02
6,V206W,-1.03
7,V206M,-0.563
8,V206Q,-0.927
9,V206S,-0.585
10,V206A,-0.219
11,V206D,-1.02
12,V206K,-1.01
13,V206C,-0.0127
14,V206Y,-1.01
15,V206N,-0.923
16,T204V,0.0534
17,T204I,0.0296
18,T204R,-0.0298
19,T204H,-0.234
20,T204D,-0.103
21,T204S,-0.127
22,T204L,-0.0721
23,T204F,-0.0751
24,T204P,-0.903

row,Variant,8OG:A repair function score
1,T204G,-0.452
2,T204W,-0.109
3,T204A,-0.0766
4,T204Q,-0.045
5,T204K,0.0186
6,T204M,-0.111
7,T204Y,-0.127
8,T204N,-0.117
9,T204E,0.00943
10,T204C,0.0932
11,G209W,-0.876
12,G209F,-0.839
13,G209R,-0.364
14,G209D,-0.851
15,G209H,-0.659
16,G209T,-0.207
17,G209Q,-0.48
18,G209E,-0.837
19,G209V,-0.00522
20,G209N,0.0546
21,G209Y,-0.757
22,G209S,0.0281
23,G209P,-0.887
24,G209K,-0.788

row,Variant,8OG:A repair function score
1,G209A,-0.0943
2,G209C,0.162
3,G209L,-0.534
4,G209I,-0.359
5,V207R,-0.947
6,V207N,-0.883
7,V207F,-0.875
8,V207A,-0.78
9,V207G,-1.03
10,V207T,-0.785
11,V207L,-0.375
12,V207H,-0.941
13,V207K,-0.909
14,V207C,-0.542
15,V207I,-0.363
16,V207P,-1.01
17,V207D,-0.986
18,V207Q,-0.868
19,V207W,-0.834
20,V207E,-1.03
21,V207S,-0.875
22,V207Y,-0.858
23,V207M,-0.495
